T1: human IL-17F (IL-17FF homodimer) (human, UniProt Q96PD4 31-163)
T1 sequence (looked up): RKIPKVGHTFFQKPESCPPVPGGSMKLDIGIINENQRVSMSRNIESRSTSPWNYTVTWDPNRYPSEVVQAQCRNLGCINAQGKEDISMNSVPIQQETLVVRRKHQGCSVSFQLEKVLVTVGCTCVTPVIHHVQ


What was measured:
[1] = target: T2, human TNFα (human, UniProt P01375 77-233); test: ELISA, cytokine coated on plate, binder titrated, HRP secondary antibody
T2 construct: also called hTNFα

[2] = target: T3, human IL-17A (IL-17AA homodimer) (human, UniProt Q16552 20-155, limits assumed); test: as above
T3 construct: also called hIL-17A; hIL-17AA

[3] = target: T2, human TNFα; test: cell-based or functional assay
[4] = target: T3, human IL-17A (IL-17AA homodimer); test: cell-based or functional assay
[5] = target: T1, human IL-17F (IL-17FF homodimer); test: cell-based or functional assay
[6] = target: T1, human IL-17F (IL-17FF homodimer); test: ELISA, cytokine coated on plate, binder titrated, HRP secondary antibody

T3 sequence (Q16552 20-155 limits assumed): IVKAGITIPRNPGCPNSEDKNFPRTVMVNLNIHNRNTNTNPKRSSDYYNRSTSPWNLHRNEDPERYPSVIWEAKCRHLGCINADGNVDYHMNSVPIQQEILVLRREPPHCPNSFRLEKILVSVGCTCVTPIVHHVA
T2 sequence (P01375 77-233 limits assumed): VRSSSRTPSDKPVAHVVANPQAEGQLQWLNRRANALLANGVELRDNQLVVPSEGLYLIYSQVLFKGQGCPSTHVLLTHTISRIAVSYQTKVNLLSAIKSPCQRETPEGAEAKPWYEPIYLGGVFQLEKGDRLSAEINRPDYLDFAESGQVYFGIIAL

| Binder | EC50 [1] [µg/mL] | EC50 [2] [ng/mL] | IC50 (ng/mL) of hTNFα, SEAP reporter assay in HEK-Blue TNFα cells [3] [ng/mL] | IC50 (ng/mL) of hIL-17A, SEAP reporter assay in HEK-Blue IL-17 cells [4] [ng/mL] | IC50 (ng/mL) of hIL-17F, SEAP reporter assay in HEK-Blue IL-17 cells [5] [ng/mL] | EC50 [6] [µg/mL] |
| --- | --- | --- | --- | --- | --- | --- |
| T1-T4-32 (Fc fusion, also called T1c-Fcb-T4g; IL-17RA/RC-Fc-TNFR2) LRLLDHRAPVCSQPGLNCTVKNSDCLDDSWIHPRNLTPSSPKDLQIQLHFAHTQQGDLVPVAHIEWTLQTDASILYLEGAELSVLQLDTNERLCVRFEFLSKLRHHHRRWRFTFSHFVVDPGQEYEVTVHHLPKPIPDGDPNHQSKNFLVPDCEHPRMKVTTPCMSSALPWLNVSADGDNVHLVLNVSEEQHFGLSLYWNQVQGPPKPRWHKNLTGPQIITLNHTDLVPCLCIQVWPLEPDSVRTNICPFREDPRAHQNLWQAARLRLLTLQSWLLDAPCSLPAEAALCWRAPGGDPCQPLVPPLSWENVTVDKVLEFPLLKGHPNLCVQVNSSEKLQLQECLWADSLGPLKDDVLLLETRGPQDNRSLCALEPSGCTSLPSKASTRAARLGEYLLQDLQSGQCLQLWDDDLGALWACPMDKYIHKTGIEGRMDRNTGRGGEEKKKEKEKEEQEERETKTPECPSHTQPLGVFLFPPKPKDTLMISRTPEVTCVVVDVSQEDPEVQFNWYVDGVEVHNAKTKPREEQFNSTYRVVSVLTVLHQDWLNGKEYKCKVSNKGLPSSIEKTISKAKGQPREPQVYTLPPSQEEMTKNQVSLTCLVKGFYPSDIAVEWESNGQPENNYKTTPPVLDSDGSFFLYSRLTVDKSRWQEGNVFSCSVMHEALKFHYTQKSLSLSLGKGGGGSGGGGSGGGGSLELPAQVAFTPYAPEPGSTCRLREYYDQTAQMCCAKCPPGQHAKVFCTKTSDTVCDSCEDSTYTQLWNWVPECLSCSSRCSSDQVETQACTREQNRICTCRPGWYCALSKQEGCRLCAPLSKCRPGFGVARPGTETSDVVCKPCAPGTFSNTTSSTDICRPHQICSVVAIPGNASMDAVCTSTSPTRSMAPGAVHLPQPVSTRSQHTQPTPGPSTAPSTSILLPMGPSPPAEGSTGD | 0.0406 |  |  | 20.5 | 1260 |  |
| T1-T4-13 (Fc fusion, also called T1c-Fc-T4f; IL-17RA/RC-Fc-TNFR2) LRLLDHRAPVCSQPGLNCTVKNSDCLDDSWIHPRNLTPSSPKDLQIQLHFAHTQQGDLVPVAHIEWTLQTDASILYLEGAELSVLQLDTNERLCVRFEFLSKLRHHHRRWRFTFSHFVVDPGQEYEVTVHHLPKPIPDGDPNHQSKNFLVPDCEHPRMKVTTPCMSSALPWLNVSADGDNVHLVLNVSEEQHFGLSLYWNQVQGPPKPRWHKNLTGPQIITLNHTDLVPCLCIQVWPLEPDSVRTNICPFREDPRAHQNLWQAARLRLLTLQSWLLDAPCSLPAEAALCWRAPGGDPCQPLVPPLSWENVTVDKVLEFPLLKGHPNLCVQVNSSEKLQLQECLWADSLGPLKDDVLLLETRGPQDNRSLCALEPSGCTSLPSKASTRAARLGEYLLQDLQSGQCLQLWDDDLGALWACPMDKYIHKTGIEGRMDRNTGRGGEEKKKEKEKEEQEERETKTPECPSHTQPLGVFLFPPKPKDTLMISRTPEVTCVVVDVSQEDPEVQFNWYVDGVEVHNAKTKPREEQFNSTYRVVSVLTVLHQDWLNGKEYKCKVSNKGLPSSIEKTISKAKGQPREPQVYTLPPSQEEMTKNQVSLTCLVKGFYPSDIAVEWESNGQPENNYKTTPPVLDSDGSFFLYSRLTVDKSRWQEGNVFSCSVMHEALHNHYTQKSLSLSLGKGGGGSGGGGSGGGGSLELPAQVAFTPYAPEPGSTCRLREYYDQTAQMCCAKCPPGQHAKVFCTKTSDTVCDSCEDSTYTQLWNWVPECLSCGSRCSSDQVETQACTREQNRICTCRPGWYCALSKQEGCRLCAPLSKCRPGFGVARPGTETSDVVCKPCAPGTFSNTTSSTDICRPHQICSVVAIPGNASMDAVCTSTSPTRSMAPGAVHLPQPVSTRSQHTQPTPGPSTAPSTSILLPMGPSPPAEGSTGD |  | 9.2 | 138 | 26.9 |  |  |
| T1-T4-31 (Fc fusion, also called T1c-Fca-T4g; IL-17RA/RC-Fc-TNFR2) LRLLDHRAPVCSQPGLNCTVKNSDCLDDSWIHPRNLTPSSPKDLQIQLHFAHTQQGDLVPVAHIEWTLQTDASILYLEGAELSVLQLDTNERLCVRFEFLSKLRHHHRRWRFTFSHFVVDPGQEYEVTVHHLPKPIPDGDPNHQSKNFLVPDCEHPRMKVTTPCMSSALPWLNVSADGDNVHLVLNVSEEQHFGLSLYWNQVQGPPKPRWHKNLTGPQIITLNHTDLVPCLCIQVWPLEPDSVRTNICPFREDPRAHQNLWQAARLRLLTLQSWLLDAPCSLPAEAALCWRAPGGDPCQPLVPPLSWENVTVDKVLEFPLLKGHPNLCVQVNSSEKLQLQECLWADSLGPLKDDVLLLETRGPQDNRSLCALEPSGCTSLPSKASTRAARLGEYLLQDLQSGQCLQLWDDDLGALWACPMDKYIHKTGIEGRMDRNTGRGGEEKKKEKEKEEQEERETKTPECPSHTQPLGVFLFPPKPKDTLYITREPEVTCVVVDVSQEDPEVQFNWYVDGVEVHNAKTKPREEQFNSTYRVVSVLTVLHQDWLNGKEYKCKVSNKGLPSSIEKTISKAKGQPREPQVYTLPPSQEEMTKNQVSLTCLVKGFYPSDIAVEWESNGQPENNYKTTPPVLDSDGSFFLYSRLTVDKSRWQEGNVFSCSVMHEALHNHYTQKSLSLSLGKGGGGSGGGGSGGGGSLELPAQVAFTPYAPEPGSTCRLREYYDQTAQMCCAKCPPGQHAKVFCTKTSDTVCDSCEDSTYTQLWNWVPECLSCSSRCSSDQVETQACTREQNRICTCRPGWYCALSKQEGCRLCAPLSKCRPGFGVARPGTETSDVVCKPCAPGTFSNTTSSTDICRPHQICSVVAIPGNASMDAVCTSTSPTRSMAPGAVHLPQPVSTRSQHTQPTPGPSTAPSTSILLPMGPSPPAEGSTGD | 0.0627 |  |  | 15.3 | 1240 | 0.0853 |

Results, then the binder that gave them:

| EC50 [1] [µg/mL] | EC50 [2] [ng/mL] | IC50 (ng/mL) of hTNFα, SEAP reporter assay in HEK-Blue TNFα cells [3] [ng/mL] | IC50 (ng/mL) of hIL-17A, SEAP reporter assay in HEK-Blue IL-17 cells [4] [ng/mL] | IC50 (ng/mL) of hIL-17F, SEAP reporter assay in HEK-Blue IL-17 cells [5] [ng/mL] | EC50 [6] [µg/mL] | Binder |
| --- | --- | --- | --- | --- | --- | --- |
| 0.0233 | 10.2 | 249 | 24.7 | 2230 |  | T1-T4-06 (Fc fusion, also called T1b-Fc-T4wt; IL-17RA/RC-Fc-TNFR2) LRLLDHRAPVCSQPGLNCTVKNSDCLDDSWIHPRNLTPSSPKDLQIQLHFAHTQQGDLVPVAHIEWTLQTDASILYLEGAELSVLQLDTNERLCVRFEFLSKLRHHHRRWRFTFSHFVVDPGQEYEVTVHHLPKPIPDGDPNHQSKNFLVPDCEHARMKVTTPCMSSALPWLNVSADGDNVHLVLNVSEEQHFGLSLYWNQVQGPPKPRWHKNLTGPQIITLNHTDLVPCLCIQVWPLEPDSVRTNICPFREDPRAHQNLWQAARLRLLTLQSWLLDAPCSLPAEAALCWRAPGGDPCQPLVPPLSWENVTVDKVLEFPLLKGHPNLCVQVNSSEKLQLQECLWADSLGPLKDDVLLLETRGPQDNRSLCALEPSGCTSLPSKASTRAARLGEYLLQDLQSGQCLQLWDDDLGALWACPMDKYIHKTGIEGRMDRNTGRGGEEKKKEKEKEEQEERETKTPECPSHTQPLGVFLFPPKPKDTLMISRTPEVTCVVVDVSQEDPEVQFNWYVDGVEVHNAKTKPREEQFNSTYRVVSVLTVLHQDWLNGKEYKCKVSNKGLPSSIEKTISKAKGQPREPQVYTLPPSQEEMTKNQVSLTCLVKGFYPSDIAVEWESNGQPENNYKTTPPVLDSDGSFFLYSRLTVDKSRWQEGNVFSCSVMHEALHNHYTQKSLSLSLGKGGGGSGGGGSGGGGSLELPAQVAFTPYAPEPGSTCRLREYYDQTAQMCCSKCSPGQHAKVFCTKTSDTVCDSCEDSTYTQLWNWVPECLSCGSRCSSDQVETQACTREQNRICTCRPGWYCALSKQEGCRLCAPLRKCRPGFGVARPGTETSDVVCKPCAPGTFSNTTSSTDICRPHQICNVVAIPGNASMDAVCTSTSPTRSMAPGAVHLPQPVSTRSQHTQPTPEPSTAPSTSFLLPMGPSPPAEGSTGD |
| 2.04 | 7.06 | 354 | 24.4 | 2740 | 0.183 | T1-T4-07 (Fc fusion, also called T1c-Fc-T4wt; IL-17RA/RC-Fc-TNFR2) LRLLDHRAPVCSQPGLNCTVKNSDCLDDSWIHPRNLTPSSPKDLQIQLHFAHTQQGDLVPVAHIEWTLQTDASILYLEGAELSVLQLDTNERLCVRFEFLSKLRHHHRRWRFTFSHFVVDPGQEYEVTVHHLPKPIPDGDPNHQSKNFLVPDCEHPRMKVTTPCMSSALPWLNVSADGDNVHLVLNVSEEQHFGLSLYWNQVQGPPKPRWHKNLTGPQIITLNHTDLVPCLCIQVWPLEPDSVRTNICPFREDPRAHQNLWQAARLRLLTLQSWLLDAPCSLPAEAALCWRAPGGDPCQPLVPPLSWENVTVDKVLEFPLLKGHPNLCVQVNSSEKLQLQECLWADSLGPLKDDVLLLETRGPQDNRSLCALEPSGCTSLPSKASTRAARLGEYLLQDLQSGQCLQLWDDDLGALWACPMDKYIHKTGIEGRMDRNTGRGGEEKKKEKEKEEQEERETKTPECPSHTQPLGVFLFPPKPKDTLMISRTPEVTCVVVDVSQEDPEVQFNWYVDGVEVHNAKTKPREEQFNSTYRVVSVLTVLHQDWLNGKEYKCKVSNKGLPSSIEKTISKAKGQPREPQVYTLPPSQEEMTKNQVSLTCLVKGFYPSDIAVEWESNGQPENNYKTTPPVLDSDGSFFLYSRLTVDKSRWQEGNVFSCSVMHEALHNHYTQKSLSLSLGKGGGGSGGGGSGGGGSLELPAQVAFTPYAPEPGSTCRLREYYDQTAQMCCSKCSPGQHAKVFCTKTSDTVCDSCEDSTYTQLWNWVPECLSCGSRCSSDQVETQACTREQNRICTCRPGWYCALSKQEGCRLCAPLRKCRPGFGVARPGTETSDVVCKPCAPGTFSNTTSSTDICRPHQICNVVAIPGNASMDAVCTSTSPTRSMAPGAVHLPQPVSTRSQHTQPTPEPSTAPSTSFLLPMGPSPPAEGSTGD |

Reference: patent publication EP4682164A1 (Curogen Technology Co., Ltd., dated 2026)
